Publication PMC3629208, “Effective Identification of Akt Interacting Proteins by Two-Step Chemical Crosslinking, Co-Immunoprecipitation and Mass Spectrometry” (PLoS ONE, 2013)

B1: ErbB3 binding protein 1 (EBP1, also called proliferation-associated protein 2G4) (natural protein, mouse (endogenous in Neuro 2A), UniProt P50580 1-394, looked up)
chain: MSGEDEQQEQTIAEDLVVTKYKMGGDIANRVLRSLVEASSSGVSVLSLCEKGDAMIMEETGKIFKKEKEMKKGIAFPTSISVNNCVCHFSPLKSDQDYILKEGDLVKIDLGVHVDGFIANVAHTFVIGVAQGTQVTGRKADVIKAAHLCAEAALRLVKPGNQNTQVTEAWNKVAHSFNCTPIEGMLSHQLKQHVIDGEKTIIQNPTDQQKKDHEKAEFEVHEVYAVDVLVSSGEGKAKDAGQRTTIYKRDPSKQYGLKMKTSRAFFSEVERRFDAMPFTLRAFEDEKKARMGVVECAKHELLQPFNVLYEKEGEFVAQFKFTVLLMPNGPMRITSGPFEPDLYKSEMEVQDAELKALLQSSASRKTQKKKKKKASKTVENATSGETLEENGAGD
notes: EBP1 (proliferation-associated protein 2G4), mouse, endogenous; gi 116283229, 42 kDa; source: endogenous, Neuro 2A lysate
B2: extracellular regulated kinase-1 and -2 (ERK1/2) (natural protein, mouse (endogenous in Neuro 2A), UniProt P63085 1-358, looked up)
chain: MAAAAAAGPEMVRGQVFDVGPRYTNLSYIGEGAYGMVCSAYDNLNKVRVAIKKISPFEHQTYCQRTLREIKILLRFRHENIIGINDIIRAPTIEQMKDVYIVQDLMETDLYKLLKTQHLSNDHICYFLYQILRGLKYIHSANVLHRDLKPSNLLLNTTCDLKICDFGLARVADPDHDHTGFLTEYVATRWYRAPEIMLNSKGYTKSIDIWSVGCILAEMLSNRPIFPGKHYLDQLNHILGILGSPSQEDLNCIINLKARNYLLSLPHKNKVPWNRLFPNADSKALDLLDKMLTFNPHKRIEVEQALAHPYLEQYYDPSDEPIAEAPFKFDMELDDLPKEKLKELIFEETARFQPGYRS
notes: ERK1/2, mouse, endogenous; the MS entry is a single 42 kDa protein; source: endogenous, Neuro 2A lysate
B3: glycogen synthase kinase (GSK)-3β (enzyme, mouse (endogenous in Neuro 2A), UniProt Q9WV60 1-420, looked up)
chain: MSGRPRTTSFAESCKPVQQPSAFGSMKVSRDKDGSKVTTVVATPGQGPDRPQEVSYTDTKVIGNGSFGVVYQAKLCDSGELVAIKKVLQDKRFKNRELQIMRKLDHCNIVRLRYFFYSSGEKKDEVYLNLVLDYVPETVYRVARHYSRAKQTLPVIYVKLYMYQLFRSLAYIHSFGICHRDIKPQNLLLDPDTAVLKLCDFGSAKQLVRGEPNVSYICSRYYRAPELIFGATDYTSSIDVWSAGCVLAELLLGQPIFPGDSGVDQLVEIIKVLGTPTREQIREMNPNYTEFKFPQIKAHPWTKVFRPRTPPEAIALCSRLLEYTPTARLTPLEACAHSFFDELRDPNVKLPNGRDTPALFNFTTQELSSNPPLATILIPPHARIQAAASPPANATAASDTNAGDRGQTNNAASASASNST
notes: glycogen synthase kinase-3 beta, mouse, endogenous; gi 9790077, 47 kDa; source: endogenous, Neuro 2A lysate
B4: nuclear distribution gene C (Nudc, also named nuclear migration gene C) (natural protein)
chain: not shown
notes: nuclear migration protein nudC, mouse, endogenous; gi 6754910, 38 kDa; source: endogenous, Neuro 2A lysate

Target: T1, Akt (protein kinase B), Akt1 (mouse (endogenous in Neuro 2A), UniProt P31750 1-480)
T1 construct: Akt1, mouse, endogenous in Neuro 2A cells, captured by a rabbit anti-Akt antibody; MS peptide assigned to Akt1 (gi/6753034); Bait of all co-IPs; The anti-Akt antibody may also capture other Akt isoforms; Cells were unstimulated or IGF-1 stimulated (phospho-T308 as the mark of active Akt); source: endogenous, Neuro 2A lysate
Assay: co-IP; two-step crosslinking co-IP (DSS-fixed anti-Akt antibody, DSP-crosslinking of the bound complexes) from Neuro 2A lysate, western blot; cells with or without IGF-1 (10 ng/mL, 10 min); band intensity normalized to Akt level
Settings: partners not purified

T1 sequence (P31750 whole entry, canonical isoform): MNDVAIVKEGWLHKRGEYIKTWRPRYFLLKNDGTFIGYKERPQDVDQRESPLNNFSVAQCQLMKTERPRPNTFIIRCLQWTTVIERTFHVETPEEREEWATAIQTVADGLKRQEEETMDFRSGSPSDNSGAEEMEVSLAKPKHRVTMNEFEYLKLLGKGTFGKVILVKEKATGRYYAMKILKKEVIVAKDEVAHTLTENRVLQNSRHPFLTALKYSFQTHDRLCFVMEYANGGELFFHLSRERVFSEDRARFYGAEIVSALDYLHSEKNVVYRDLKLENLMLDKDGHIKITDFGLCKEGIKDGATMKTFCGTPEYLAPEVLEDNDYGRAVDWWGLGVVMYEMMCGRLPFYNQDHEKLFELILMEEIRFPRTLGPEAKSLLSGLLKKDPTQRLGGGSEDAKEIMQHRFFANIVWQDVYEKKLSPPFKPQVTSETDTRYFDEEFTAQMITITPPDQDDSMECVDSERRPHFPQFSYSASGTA

Binder	fold increase of association, IGF-stimulated (active Akt) against unstimulated, normalized to Akt level	fold change of association, IGF-stimulated against unstimulated, normalized to Akt level	fold increase of co-precipitated ERK1/2 with DSP-crosslinking against without, normalized to Akt level
B1	2.4 fold		
B2		0.98 fold	2.5 ± 0.2 fold
B3	1.8 fold		
B4		0.97 ± 0.1 fold	
